Measured values: PMC11097922

Biological target: 220 kDa ankyrin-B-GFP
Assay: proximity ligation

“NaV1.2 II-III loop-3xHA (wild type) (from UniProt Q99250 991-1211) (domain or fragment)” showed a PLA signal of 11.6 a.u.
